This assay deals with T1, engineered human PTCH1 protein (PTCH1*, a functional PTCH1 variant with two cytosolic loops truncated) (Homo sapiens, stabilised).
T1 chain: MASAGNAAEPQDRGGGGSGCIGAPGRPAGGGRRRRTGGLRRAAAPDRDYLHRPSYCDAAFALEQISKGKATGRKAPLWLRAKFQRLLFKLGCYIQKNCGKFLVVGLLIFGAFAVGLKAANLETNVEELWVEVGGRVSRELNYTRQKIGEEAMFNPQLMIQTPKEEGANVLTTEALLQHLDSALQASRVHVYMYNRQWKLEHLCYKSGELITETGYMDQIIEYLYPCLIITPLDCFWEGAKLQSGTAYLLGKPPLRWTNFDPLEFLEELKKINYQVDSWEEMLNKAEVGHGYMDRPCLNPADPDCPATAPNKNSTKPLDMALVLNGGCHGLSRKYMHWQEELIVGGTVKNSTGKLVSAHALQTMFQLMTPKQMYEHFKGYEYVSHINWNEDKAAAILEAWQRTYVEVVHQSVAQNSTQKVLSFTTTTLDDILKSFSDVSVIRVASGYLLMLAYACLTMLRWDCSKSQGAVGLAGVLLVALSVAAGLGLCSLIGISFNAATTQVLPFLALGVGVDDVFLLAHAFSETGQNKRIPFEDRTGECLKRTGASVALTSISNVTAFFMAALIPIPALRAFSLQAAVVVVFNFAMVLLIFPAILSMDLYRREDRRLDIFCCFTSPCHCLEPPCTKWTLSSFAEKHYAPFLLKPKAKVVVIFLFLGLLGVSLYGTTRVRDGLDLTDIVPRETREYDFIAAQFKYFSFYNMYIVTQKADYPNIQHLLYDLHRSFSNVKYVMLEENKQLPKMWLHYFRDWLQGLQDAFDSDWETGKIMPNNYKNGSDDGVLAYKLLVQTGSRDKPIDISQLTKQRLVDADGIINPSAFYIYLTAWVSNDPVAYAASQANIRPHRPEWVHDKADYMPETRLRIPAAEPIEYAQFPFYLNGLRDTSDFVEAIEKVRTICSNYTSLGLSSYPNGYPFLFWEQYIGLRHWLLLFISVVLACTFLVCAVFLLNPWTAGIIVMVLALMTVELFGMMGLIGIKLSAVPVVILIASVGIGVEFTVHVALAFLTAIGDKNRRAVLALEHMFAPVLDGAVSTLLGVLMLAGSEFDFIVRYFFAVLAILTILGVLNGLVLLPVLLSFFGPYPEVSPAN
In words: cell-based or functional assay.

B1: Fab^6H3 (Fab, V domains shown)
VH: EVQLVESGGGLVKPGGSRKLSCVASGFTLSDYGMHWVRQAPEKGLEWVAYIGSDSYTIYHADTMKGRFTISRDNAKNTLFLQMTSLRSEDTAMYYCGRNYGMDYWGQGTS
VL: VLTQSPAIMSASLGERVTLTCTASSSVTSSYLHWYQQKPGSSPKLWIYSTSNLPFGVSPRFSGSGSGTSFSLTISSMEAEDAATYYCHQFHRSPYTFGGGTK
For the molecule B1, the “IC50 of the dose-dependent inhibition of HH signaling, Dual-Luciferase Reporter Assay in SHH-Light II cells; pair blocked: SHH with PTCH1” value is ~77.8 nM.

Source of the values: PMC11933295, “Inhibiting hedgehog signal by a patched-1 antibody” (Cell Discovery, 2025).
